Reference: the Immune Epitope Database (IEDB)
pKd: −log10 of the molar value.

How the values were obtained:
Assay in all cases: IEDB peptide-MHC binding, purified MHC/competitive/radioactivity; filed as Kd, often an IC50 or EC50 that approximates it; ≥ and ≤ were set here for values at or beyond the usual limits of such assays
HLA-A*02:03 = biological target: HLA-A*02:03
HLA-A*02:06 = biological target: HLA-A*02:06
HLA-A*68:02 = biological target: HLA-A*68:02
HLA-A*02:02 = biological target: HLA-A*02:02
HLA-A*02:01 = biological target: HLA-A*02:01
[1] = source organism: Guanarito virus strain INH-95551
[2] = source organism: Lassa virus Josiah
[3] = source organism: Pichinde virus strain Munchique
[4] = source organism: Whitewater Arroyo virus strain AV9310135

Work on GTTSLFLHL yielded a pKd (HLA-A*02:03; [1]) of 6.12, a pKd (HLA-A*02:06; [1]) of 8.30 and a pKd (HLA-A*68:02; [1]) of 8.30. For the same sequence, the pKd (HLA-A*02:02; [1]) was 7.24 and the pKd (HLA-A*02:01; [1]) was 7.31.
With YLISIFLHL the pKd (HLA-A*02:03; [2]) was 7.96, the pKd (HLA-A*02:06; [2]) was 8.00 and the pKd (HLA-A*02:02; [2]) was 6.76.
With YTITVFLHL the pKd (HLA-A*02:03; [3]) was 4.83, the pKd (HLA-A*02:06; [3]) was 8.15 and the pKd (HLA-A*68:02; [3]) was 8.30. For the same sequence, the pKd (HLA-A*02:02; [3]) was 6.89 and the pKd (HLA-A*02:01; [3]) was 8.00.
YVSSIFLHL gave a pKd (HLA-A*02:03; [4]) of 8.00, a pKd (HLA-A*02:06; [4]) of 7.82 and a pKd (HLA-A*68:02; [4]) of no less than 9.00. The pKd (HLA-A*02:02; [4]) was no less than 9.00.
